Source: patent publication US20250066819

Key:
Assay in all cases: cell_activity
[1] = tested on: Type I-F3a CAST (TniQ-Cascade + TnsABC) (Vibrio cholerae HE-45)
[2] = tested on: Type I-F3a CAST with Cas6 R117A Cas6 R117A (Vibrio cholerae HE-45); conditions: below detection
[3] = tested on: Type I-F3a CAST with Cas6 R121A Cas6 R121A (Vibrio cholerae HE-45); conditions: below detection
[4] = tested on: Type I-F3a CAST with Cas6 R125A Cas6 R125A (Vibrio cholerae HE-45); conditions: below detection

“lacZ crRNA, canonical type I-E repeat ; lacZ target” gave a relative transposition efficiency (fold of native) ([1]; printed as ~10-3-fold less efficient than native crRNA) of 0.001.
For “lacZ crRNA, native I-F3a CAST repeat ; lacZ target”, the activity ([1]; transposition efficiency of viable recipients (+/- 0.2), E. coli, conjugation assay, PAM not stated) was 1.4%, the activity [2] was less than 1e-07 cfu and the activity [3] was less than 1e-07 cfu. For the same substance, the activity [4] was less than 1e-07 cfu.
